Measurements as given in paper PMC4980431, “Ctf4 Is a Hub in the Eukaryotic Replisome that Links Multiple CIP-Box Proteins to the CMG Helicase” (Molecular Cell, 2016).
“Also recorded” adds a separate entry of the source. Where no end group is shown, it is not given here. fluorescein = amino-terminal fluorescein label

Key:
[1] = molecular target: Pol1 CIP-box (Saccharomyces cerevisiae) (UniProt P13382); details: cited from earlier work
[2] = molecular target: Sld5 CIP-box (Saccharomyces cerevisiae) (UniProt Q03406); details: cited from earlier work
Ctf4-I901E (471-927) = assay: Fluorescence anisotropy, Sld5 peptide binding to Ctf4-I901E; design: species or system budding yeast; details: Figure S2B; 40 nM fluorescein-labeled Sld5 peptide, pH 7.2, 25°C
Description: (§1) The lowest concentration of peptide at which the binding studies could be performed was determined via peptide calibration curves. Fluorescence anisotropy measurements were recorded in a PHERAstar Plus multi-detection plate reader (BMG Labtech) equipped with fluorescence polarization optic module (λex = 485 nm; λem = 520 nm) at 25°C. Each data point is the mean of 200 flashes/well. The voltage gain was set by adjusting the target mP values of fluorescein-labeled peptides relative to that of fluorescein (35 mP). Serial dilutions of Ctf4CTD were made in 20 mM HEPES (pH 7.2), 140 mM KCl, and 5% (w/v) glycerol in the presence of 40 nM (Sld5 and Tof2) or 50 nM (Dna2) fluorescein-labeled peptide. For Dna2 peptide, each data point is the mean of three independent experiments and curve fitting to the experimental data was performed in pro Fit 6.2 (QuantumSoft) using a Levenberg-Marquardt fitting algorithm in combination with a Gaussian error distribution analysis.

Ctf4-4E (471-927) = assay: Fluorescence anisotropy, Sld5 peptide binding to Ctf4-4E; design: species or system budding yeast; details: Figure S2B; 40 nM fluorescein-labeled Sld5 peptide, pH 7.2, 25°C
Description: as §1

Ctf4 471–927 [3] = molecular target: T1, Ctf4 471–927 (budding yeast, UniProt Q01454 471-927); assay: fluorescence polarisation; fluorescence anisotropy; serial dilutions of Ctf4CTD with 40 nM (Sld5, Tof2) or 50 nM (Dna2) fluorescein-labeled peptide; 20 mM HEPES pH 7.2, 140 mM KCl, 5% glycerol, 25°C; details: both partners purified
T1 construct: also called Ctf4CTD; source: purified Ctf4CTD protein
T1 sequence (looked up): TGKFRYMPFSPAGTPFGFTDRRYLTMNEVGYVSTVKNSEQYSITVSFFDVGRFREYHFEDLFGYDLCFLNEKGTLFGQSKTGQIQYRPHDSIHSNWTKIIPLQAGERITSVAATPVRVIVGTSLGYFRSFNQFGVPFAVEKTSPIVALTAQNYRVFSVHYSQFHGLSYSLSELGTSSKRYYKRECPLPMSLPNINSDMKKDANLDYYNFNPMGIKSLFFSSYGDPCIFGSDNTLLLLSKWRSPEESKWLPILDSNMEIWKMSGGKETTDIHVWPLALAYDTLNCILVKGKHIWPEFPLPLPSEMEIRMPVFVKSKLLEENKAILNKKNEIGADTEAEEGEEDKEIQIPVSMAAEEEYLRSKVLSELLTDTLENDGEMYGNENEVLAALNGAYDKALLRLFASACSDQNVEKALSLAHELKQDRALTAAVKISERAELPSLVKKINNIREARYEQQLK

Ctf4 471–927 [4] = molecular target: T1, Ctf4 471–927; assay: pull-down; GST fusion on Glutathione Sepharose beads; 500 μl purified Ctf4CTD at 2 mg/ml, 1 hr at 4°C; 20 mM HEPES pH 7.2, 150 mM NaCl, 5% glycerol, 0.1% Igepal CA-630, 1 mM TCEP, 1% BSA; SDS-PAGE; details: both partners purified
Pol1 = assay: Yeast two-hybrid with Pol1; format: binding, budding yeast
Description: (§2) Yeast growth, two-hybrid analysis, and immunoprecipitation experiments were performed as described in detail previously ([Maculins et al., 2015], [Maric et al., 2014]). A two-hybrid screen against amino acids 461–927 of Ctf4 was performed by the company Hybrigenics.

Dna2 = assay: Yeast two-hybrid with Dna2; format: binding, budding yeast
Description: as §2

Tof2 = assay: Yeast two-hybrid with Tof2; format: binding, budding yeast
Description: as §2

Dpb2 = assay: Yeast two-hybrid with Dpb2; format: binding, budding yeast
Description: as §2

CMG helicase = assay: Co-purification with CMG helicase from yeast cell extracts; format: cell-based, budding yeast; details: extracts of S phase yeast cells; immunoprecipitation, immunoblotting
Description: (D) Cultures of ctf4-4E MCM4-9MYC (YFV13) and MCM4-9MYC control cells (YSS75) were synchronized in G1-phase at 30°C and then released into S phase for 20 min. The Mcm4-9MYC was isolated from cell extracts by immunoprecipitation and the associated proteins monitored by immunoblotting. (E) ctf4-4E is synthetic lethal with mrc1Δ. The cells were processed as in Figure 1A, and the photos in the lower images were taken after 20 hr growth at 30°C (the scale bars represent 50 μm). See also Figure S2. TEXT PRINTED IN THE PICTURE: (C) Ctf4-4E (471-927): 162 kDa
as §2

SEC-MALS = format: physicochemical; details: residues 471–927, 2 mg/ml, 20 mM HEPES pH 7.2, 160 mM NaCl
Description: 100 μl of Ctf4CTD 4E mutant protein (with mutated binding site for type I CIP-boxes) at a concentration of 2 mg/ml was loaded onto a Superdex S200 HR 10/300 gel-filtration column (GE Healthcare) in 20 mM HEPES pH 7.2, 160 mM NaCl at a flow rate of 0.5 ml/min. The column was controlled using an Äkta Purifier System (GE Healthcare) and was linked to a DAWN 8^+ 8-angle light scattering detector (Wyatt Technology) with a fused silica sample cell using a laser wavelength of 664 nm. The change in the refractive index was detected using an Optilab T-rEX refractometer with extended range (Wyatt Technology) using a wavelength of 658 nm. Data collection and analysis was carried out using the ASTRA6 software package (Wyatt Technology). Molecular weight determination across the sample peak was carried out using a Zimm-plot derived global fitting algorithm with a fit degree of 1 and a dn/dc value of 0.1850 ml/g.

Ctf4 471–927 [5] = molecular target: T1, Ctf4 471–927; assay: native MS; 5-fold or 10-fold molar excess of peptide mixed with 100 μM Ctf4CTD in 500 mM ammonium acetate, at least 30 min; details: both partners purified

In the case of Ctf4 (from UniProt Q01454), the Kd [1] is given as 25 µM and the Kd [2] is given as 5 µM.

For “Sld5 peptide (1-19): isolated peptide containing the Sld5 CIP-box, residues 1-19 (MDINIDDILAELDKETTAV; also: fluorescein-labeled, end not given here; UniProt Q03406 1-19, looked up, fragment)”, the “binding to Ctf4-I901E (in words)” value (Ctf4-I901E (471-927)) was “blocked binding; also recorded: neither Ctf4-4E nor Ctf4-I901E could bind” and the “binding to Ctf4-4E (in words)” value (Ctf4-4E (471-927)) was “blocked binding; also recorded: neither Ctf4-4E nor Ctf4-I901E could bind”.

B1: Dna2 peptide 207–223 (peptide)
peptide: fluorescein-SLRNIDDILDDIEGDLT
notes: Dna2, yeast, residues 207-223; also called Dna2 CIP-box peptide; isolated peptide containing the Dna2 CIP-box; source: synthetic peptide (Cambridge Peptides)
For B1, the Kd (Ctf4 471–927 [3]) was 230 µM.

B2: GST-Dna2 CIP-box 207–223 (domain or fragment, yeast)
chain: SLRNIDDILDDIEGDLT
notes: Dna2, budding yeast, residues 207-223 (CIP-box)
B2: binds (Ctf4 471–927 [4]).

B3: Ctf4-4E: Ctf4 L867E-A871E-A897E-I901E, mutated binding site for type I CIP-boxes (protein, UniProt Q01454 2-927, looked up, variant L867E A871E A897E I901E)
DNA polymerase alpha-binding …: VSVIDKLVFDFGGKTLVSLAPDNNTLCVANKNGLTKILKTNNPEEEPETLDSSKLVSSIKCYSNSHFLMTTMQGDALRYNIDSSQEELLARFALPLRDCCVIHSGKMAVFGGDDLELILLELDDETHKKHAIKIDEQVSQISYNSQMNILAVSMINGKVQIFSLTSTIPNKVHELNDYIVANSYDDTHRDKILSNMMDDIDKDNDNDLSETADPDENNVADPEFCAANRICTRVAWHPKGLHFALPCADDTVKIFSIKGYSLQKTLSTNLSSTKAHFIDLQFDPLRGTYIAAVDLNNKLTVWNWETSEIHYTREFKRKITNIAWKIQADSKTLDLVLGTWSGSIAIVQNLAESVVSNIPDQSVAESSTKHGLFVDSESDLENLEGNDDINKSDKLFSDITQEANAEDVFTQTHDGPSGLSEKRKYNFEDEEDFIDDDDGAGYISGKKPHNEHSYSRVHKTHSFPISLANTGKFRYMPFSPAGTPFGFTDRRYLTMNEVGYVSTVKNSEQYSITVSFFDVGRFREYHFEDLFGYDLCFLNEKGTLFGQSKTGQIQYRPHDSIHSNWTKIIPLQAGERITSVAATPVRVIVGTSLGYFRSFNQFGVPFAVEKTSPIVALTAQNYRVFSVHYSQFHGLSYSLSELGTSSKRYYKRECPLPMSLPNINSDMKKDANLDYYNFNPMGIKSLFFSSYGDPCIFGSDNTLLLLSKWRSPEESKWLPILDSNMEIWKMSGGKETTDIHVWPLALAYDTLNCILVKGKHIWPEFPLPLPSEMEIRMPVFVKSKLLEENKAILNKKNEIGADTEAEEGEEDKEIQIPVSMAAEEEYLRSKVLSELLTDTLENDGEMYGNENEVLAALNGAYDKALERLFESACSDQNVEKALSLAHELKQDRALTEAVKESERAELPSLVKKINNIREARYEQQLK
With B3 the “interaction with Pol1 (in words)” value (Pol1) was “does not interact with the amino terminus of Pol1; also recorded: unable to interact”, the “interaction with Dna2 (in words)” value (Dna2) was “unable to interact” and the “interaction with Tof2 (in words)” value (Tof2) was “still able to interact”. For the same molecule, the “interaction with Dpb2 (in words)” value (Dpb2) was “still able to interact”, the “association with CMG helicase (in words)” value (CMG helicase) was “unable to interact with the CMG helicase” and the “oligomeric state (in words)” value (SEC-MALS; SEC-MALS) was “able to form a trimer in vitro; also recorded: trimeric”. The “molecular mass by SEC-MALS” value (SEC-MALS; printed in Figure 2C) was 162 kDa.

B4: Ctf4-3E: Ctf4 with M731, I740, and L756 mutated to glutamate; disrupts binding site for type II CIP-box proteins (protein)
chain: MVSVIDKLVFDFGGKTLVSLAPDNNTLCVANKNGLTKILKTNNPEEEPETLDSSKLVSSIKCYSNSHFLMTTMQGDALRYNIDSSQEELLARFALPLRDCCVIHSGKMAVFGGDDLELILLELDDETHKKHAIKIDEQVSQISYNSQMNILAVSMINGKVQIFSLTSTIPNKVHELNDYIVANSYDDTHRDKILSNMMDDIDKDNDNDLSETADPDENNVADPEFCAANRICTRVAWHPKGLHFALPCADDTVKIFSIKGYSLQKTLSTNLSSTKAHFIDLQFDPLRGTYIAAVDLNNKLTVWNWETSEIHYTREFKRKITNIAWKIQADSKTLDLVLGTWSGSIAIVQNLAESVVSNIPDQSVAESSTKHGLFVDSESDLENLEGNDDINKSDKLFSDITQEANAEDVFTQTHDGPSGLSEKRKYNFEDEEDFIDDDDGAGYISGKKPHNEHSYSRVHKTHSFPISLANTGKFRYMPFSPAGTPFGFTDRRYLTMNEVGYVSTVKNSEQYSITVSFFDVGRFREYHFEDLFGYDLCFLNEKGTLFGQSKTGQIQYRPHDSIHSNWTKIIPLQAGERITSVAATPVRVIVGTSLGYFRSFNQFGVPFAVEKTSPIVALTAQNYRVFSVHYSQFHGLSYSLSELGTSSKRYYKRECPLPMSLPNINSDMKKDANLDYYNFNPMGIKSLFFSSYGDPCIFGSDNTLLLLSKWRSPEESKWLPILDSNMEIWKESGGKETTDEHVWPLALAYDTLNCIEVKGKHIWPEFPLPLPSEMEIRMPVFVKSKLLEENKAILNKKNEIGADTEAEEGEEDKEIQIPVSMAAEEEYLRSKVLSELLTDTLENDGEMYGNENEVLAALNGAYDKALLRLFASACSDQNVEKALSLAHELKQDRALTAAVKISERAELPSLVKKINNIREARYEQQLK
In the case of B4, the “interaction with Pol1 (in words)” value (Pol1) is reported as “without affecting interaction”, the “interaction with Dna2 (in words)” value (Dna2) is reported as “without affecting interaction” and the “interaction with Tof2 (in words)” value (Tof2) is reported as “abolished interaction”. The “interaction with Dpb2 (in words)” value (Dpb2) was “unable to interact” and the “association with CMG helicase (in words)” value (CMG helicase) was “did not prevent association of Ctf4 with the CMG helicase”.

B5: Tof2 peptide 497–517 (peptide)
peptide: fluorescein-SHAKDVKIQETIRKLNRFKPT
notes: Tof2, yeast, amino acids 497-517; also called Tof2 CIP-box peptide; peptide containing the Tof2 CIP-box; source: synthetic peptide (Cambridge Peptides)
B5: binds (Ctf4 471–927 [5]).
